Laboratory results from patent publication US20230381331A1 (HANMI PHARM, published 2023).
Non-standard residues stand in square brackets, D forms with d. No end group written: not given here. Aib = CC(C)(N)C(=O)O

B1: GIP derivative of SEQ ID NO: 11 (peptide)
peptide: Y[Aib]EGTFISDYSIAMDAIAQQDFVNWLLAQKGKKNDWKHNITQC
modifications: not fully specified; printed as YAibEGT FISDYSIAMDAIAQQDFVNWLLAQKGKKNDWKHNITQC

Each binder was assayed against T1, human GIP receptor (human, UniProt P48546 22-466) (assay: cell-based or functional assay).
T1 sequence (looked up): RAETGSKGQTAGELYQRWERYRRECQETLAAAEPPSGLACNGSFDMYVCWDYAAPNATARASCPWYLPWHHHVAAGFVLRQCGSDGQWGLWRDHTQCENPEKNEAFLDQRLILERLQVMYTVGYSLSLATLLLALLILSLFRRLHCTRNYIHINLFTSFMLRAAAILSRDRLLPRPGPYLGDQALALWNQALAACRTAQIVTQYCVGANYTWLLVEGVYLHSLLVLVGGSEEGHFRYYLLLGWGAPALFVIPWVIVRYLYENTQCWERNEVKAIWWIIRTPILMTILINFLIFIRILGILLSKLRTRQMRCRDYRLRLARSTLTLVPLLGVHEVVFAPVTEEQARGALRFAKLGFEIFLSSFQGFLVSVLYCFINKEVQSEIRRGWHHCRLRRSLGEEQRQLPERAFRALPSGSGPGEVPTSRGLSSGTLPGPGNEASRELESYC

| Binder | In vitro activity of GIP derivative compared to human native GIP in human GIP receptor (%) (cAMP EC50, LANCE cAMP kit, CHO cells) |
| --- | --- |
| Y[Aib]EGTFISDYSIAMDAIAQQDFVNWLLAQKPSSGAPPPSC (not fully specified) [GIP derivative of SEQ ID NO: 1] | 49.3% |
| Y[Aib]EGTFISDYSIYLDAQAAKEFIAWLLAGGPSSGAPPPSC (not fully specified) [GIP derivative of SEQ ID NO: 10] | 13.9% |
| B1 | 122% |
| Y[Aib]EGTFISDYSIYLDKQAA[Aib]EFVNWLLAQKGKKNDWKHNITQC (not fully specified) [GIP derivative of SEQ ID NO: 12] | 49.2% |
| Y[Aib]EGTFISDYSIYLDKQAA[Aib]EFVNWLLAQKC (not fully specified) [GIP derivative of SEQ ID NO: 13] | 31.1% |
| Y[Aib]EGTFISDYSIYLDAQAA[Aib]EFVNWLLAQKC (not fully specified) [GIP derivative of SEQ ID NO: 14] | 17.4% |
| Y[Aib]EGTFISDYSIAMDKIAQQDFVNWLLAQKPSSGAPPPSC (not fully specified) [GIP derivative of SEQ ID NO: 15] | 31.1% |
| Y[Aib]EGTFISDYSIAMDGIAQQDFVNWLLAQKPSSGAPPPSC (not fully specified) [GIP derivative of SEQ ID NO: 16] | 11.3% |
| Y[Aib]EGTFISDYSIALEKQAQQDFVNWLLAGGPSSGAPPPSC [GIP derivative of SEQ ID NO: 17] | 111% |
| Y[Aib]EGTFISDYSIYLDKQAAQEFVNWLLAQKPSSGAPPPSC [GIP derivative of SEQ ID NO: 18] | 13.6% |
| Y[Aib]EGTFISDYSIYLDKQAA[Aib]EFVNWLL[Aib]GHPSSGAPPPSC [GIP derivative of SEQ ID NO: 19] | 66.7% |
| Y[Aib]EGTFISDYSIAMDAIAQQDFVNWLLAGGPSSGAPPPSC [GIP derivative of SEQ ID NO: 2] | 13.9% |
| Y[Aib]EGTFISDYSIYLDKQAA[Aib]EFVNWLL[Aib]GGPSSGAPPPSC [GIP derivative of SEQ ID NO: 20] | 75.3% |
| Y[Aib]EGTFISDYSI[Aib]LDKQAA[Aib]EFVNWLL[Aib]GGPSSGAPPPSC [GIP derivative of SEQ ID NO: 21] | 123% |
| Y[Aib]EGTFISDYSIYLDKQAA[Aib]EFVNWLLAGHPSSGAPPPSC [GIP derivative of SEQ ID NO: 22] | 71.6% |
| Y[Aib]EGTFISDYSIYLDKQAQKEFVNWLL[Aib]GGPSSGAPPPSC [GIP derivative of SEQ ID NO: 23] | 87.6% |
| Y[Aib]EGTFISDYSI[Aib]LDKQAA[Aib]EFVNWLL[Aib]GHPSSGAPPPSC [GIP derivative of SEQ ID NO: 24] | 183% |
| Y[Aib]EGTFISDYSIYLDKQAA[Aib]EFVQWLI[Aib]GGPSSGAPPPSC [GIP derivative of SEQ ID NO: 25] | 78.3% |
| Y[Aib]EGTFISDYSIYLDKQAA[Aib]EFVQWLIAGHPSSGAPPPC [GIP derivative of SEQ ID NO: 26] | 66.7% |
| Y[Aib]EGTFISDYSI[Aib]MDAIAQQDFVNWLLAGGPSSGAPPPSC [GIP derivative of SEQ ID NO: 3] | 15.6% |
| Y[Aib]EGTFISDYSIYMDAIAQQDFVNWLLAGGPSSGAPPPSC [GIP derivative of SEQ ID NO: 4] | 10.5% |
| Y[Aib]EGTFISDYSIQMDAIAQQDFVNWLLAGGPSSGAPPPSC [GIP derivative of SEQ ID NO: 5] | 12.1% |
| Y[Aib]EGTFISDYSIYLDAIAQQDFVNWLLAGGPSSGAPPPSC [GIP derivative of SEQ ID NO: 6] | 17.4% |
| Y[Aib]EGTFISDYSIYLDAQAQQDFVNWLLAGGPSSGAPPPSC [GIP derivative of SEQ ID NO: 7] | 19.6% |
| Y[Aib]EGTFISDYSIYLDAQAA[Aib]DFVNWLLAGGPSSGAPPPSC [GIP derivative of SEQ ID NO: 8] | 1.9% |
| Y[Aib]EGTFISDYSIYLDAQAAKDFVNWLLAGGPSSGAPPPSC [GIP derivative of SEQ ID NO: 9] | 2% |
